# Patent US11872270B2, “A*03 restricted peptides for use in immunotherapy against cancers and related methods” (Immatics Biotechnologies GmbH, priority 2018, dated 2024)
# Target: HLA-A*03:01 (Homo sapiens, UniProt P04439)
# Assay: MHC binding assay (UV-ligand exchange, β2m ELISA)
# Conditions: binding to HLA-A*03:01, UV-ligand exchange, β2m ELISA
# Excerpt: Candidate peptides for T cell based therapies according to the present invention were further tested for their MHC binding capacity (affinity). The individual peptide-MHC complexes were produced by UV-ligand exchange, where a UV-sensitive peptide is cleaved upon UV-irradiation and exchanged with the peptide of interest as analyzed. Only peptide candidates that can effectively bind and stabilize the peptide-receptive MHC molecules prevent dissociation of the MHC complexes. To determine the yield of the exchange reaction, an ELISA was performed based on the detection of the light chain (β2m) of stabilized MHC complexes. The assay was performed as generally described in Rodenko et al. (Rodenko et al., 2006) 96 well MAXISorp plates (NUNC) were coated over night with 2 ug/ml streptavidin in PBS at room temperature, washed 4× and blocked for 1 h at 37° C. in 2% BSA containing blocking buffer. Refolded HLA-A*02:01/MLA-001 monomers served as standards, covering the range of 15-500 ng/ml. Peptide-MHC monomers of the UV-exchange reaction were diluted 100-fold in blocking buffer. Samples were incubated for 1 h at 37° C., washed four times, incubated with 2 ug/ml HRP conjugated anti-β2m for 1 h at 37° C., washed again and detected with TMB solution that is stopped with […]. Absorption was measured at 450 nm. Candidate peptides that show a high exchange yield (preferably higher than 50%, most preferred higher than 75%) are generally preferred for a generation and production of antibodies or fragments thereof, and/or T cell receptors or fragments thereof, as they show sufficient avidity to the MHC molecules and prevent dissociation of the MHC complexes.
row,Substance,"Peptide exchange (MHC class I binding score, peptide exchange yield)"
1,148 (RIGNKGIYK; listed as Homo sapiens) [compound 148],+++ (>50 = +++)
2,158 (RALGVPFVPR; listed as Homo sapiens) [compound 158],++++ (>75% = ++++)
3,200 (RVLPPLTRILK; listed as Homo sapiens) [compound 200],++++ (>75% = ++++)
4,82 (CLANYTVNK; listed as Homo sapiens) [compound 82],++++ (>75% = ++++)
5,96 (RAVSVNPGK; listed as Homo sapiens) [compound 96],+ (>10% = +)
6,131 (RVDSKQRYY; listed as Homo sapiens) [compound 131],++++ (>75% = ++++)
7,132 (ASSFRPLLSK; listed as Homo sapiens) [compound 132],+++ (>50 = +++)
8,221 (RLAVSTRGK; listed as Homo sapiens) [compound 221],++++ (>75% = ++++)
9,173 (VSYNRLIK; listed as Homo sapiens) [compound 173],+++ (>50 = +++)
10,141 (RLRDYISSLK; listed as Homo sapiens) [compound 141],++++ (>75% = ++++)
11,21 (SSLAELIAK; listed as Homo sapiens) [compound 21],++ (>20% = ++)
12,70 (VTAVASLLK; listed as Homo sapiens) [compound 70],++++ (>75% = ++++)
13,32 (LLDAEPPILY; listed as Homo sapiens) [compound 32],+ (>10% = +)
14,100 (TTNARILAR; listed as Homo sapiens) [compound 100],+++ (>50 = +++)
15,42 (RVCMTVDSLVNK; listed as Homo sapiens) [compound 42],++++ (>75% = ++++)
16,49 (ITAPLMPLGK; listed as Homo sapiens) [compound 49],++++ (>75% = ++++)
17,75 (IIFVPEMNK; listed as Homo sapiens) [compound 75],++++ (>75% = ++++)
18,109 (KLQNLPTLLY; listed as Homo sapiens) [compound 109],+++ (>50 = +++)
19,128 (KIKKPLSYR; listed as Homo sapiens) [compound 128],++++ (>75% = ++++)
20,210 (KIFQGQINK; listed as Homo sapiens) [compound 210],++++ (>75% = ++++)

row,Substance,"Peptide exchange (MHC class I binding score, peptide exchange yield)"
1,177 (ALLGVIIAKK; listed as Homo sapiens) [compound 177],++++ (>75% = ++++)
2,262 (TMWQIPQEFVK; listed as Homo sapiens) [compound 262],++++ (>75% = ++++)
3,59 (KINQYIIKK; listed as Homo sapiens) [compound 59],+++ (>50 = +++)
4,117 (TVFVELWLK; listed as Homo sapiens) [compound 117],++ (>20% = ++)
5,151 (KVASFTVIGY; listed as Homo sapiens) [compound 151],+++ (>50 = +++)
6,17 (GGLSSQGVYY; listed as Homo sapiens) [compound 17],++ (>20% = ++)
7,134 (SLLKPSGDYFK; listed as Homo sapiens) [compound 134],+++ (>50 = +++)
8,37 (EVILTTKTPK; listed as Homo sapiens) [compound 37],++ (>20% = ++)
9,58 (VLYRPQLEK; listed as Homo sapiens) [compound 58],++++ (>75% = ++++)
10,2 (KVMPKQTWK; listed as Homo sapiens) [compound 2],+++ (>50 = +++)
11,56 (TTYYPSPLNK; listed as Homo sapiens) [compound 56],+++ (>50 = +++)
12,181 (RVAEEILIK; listed as Homo sapiens) [compound 181],+++ (>50 = +++)
13,38 (SLFPYYNNLY; listed as Homo sapiens) [compound 38],+ (>10% = +)
14,28 (STLECILYK; listed as Homo sapiens) [compound 28],++++ (>75% = ++++)
15,168 (ATNGKVLKK; listed as Homo sapiens) [compound 168],++++ (>75% = ++++)
16,36 (QIRAELMKK; listed as Homo sapiens) [compound 36],++++ (>75% = ++++)
17,256 (AVIGALLAVGATK; listed as Homo sapiens) [compound 256],+++ (>50 = +++)
18,44 (HAFPPGPNY; listed as Homo sapiens) [compound 44],+ (>10% = +)
19,180 (RLKMAQESVSK; listed as Homo sapiens) [compound 180],++++ (>75% = ++++)
20,20 (LLPTVLIKK; listed as Homo sapiens) [compound 20],+++ (>50 = +++)

row,Substance,"Peptide exchange (MHC class I binding score, peptide exchange yield)"
1,113 (VSIRNTLLY; listed as Homo sapiens) [compound 113],+ (>10% = +)
2,185 (SIINFKPLTY; listed as Homo sapiens) [compound 185],+++ (>50 = +++)
3,143 (KTLGKIAEK; listed as Homo sapiens) [compound 143],++++ (>75% = ++++)
4,169 (ATNGKVLKKR; listed as Homo sapiens) [compound 169],++++ (>75% = ++++)
5,97 (RVRALGSQY; listed as Homo sapiens) [compound 97],++++ (>75% = ++++)
6,212 (RTIDRSVFK; listed as Homo sapiens) [compound 212],++++ (>75% = ++++)
7,98 (VSVAGSILAK; listed as Homo sapiens) [compound 98],++ (>20% = ++)
8,196 (AISSTVLGK; listed as Homo sapiens) [compound 196],++++ (>75% = ++++)
9,150 (LLLAAVTVK; listed as Homo sapiens) [compound 150],++ (>20% = ++)
10,220 (ALPRQAFHSK; listed as Homo sapiens) [compound 220],++++ (>75% = ++++)
11,105 (QVLDLQSVK; listed as Homo sapiens) [compound 105],++ (>20% = ++)
12,136 (ALSRMSQQY; listed as Homo sapiens) [compound 136],++++ (>75% = ++++)
13,51 (VTADGALAMEK; listed as Homo sapiens) [compound 51],+++ (>50 = +++)
14,164 (RLAQYTIER; listed as Homo sapiens) [compound 164],++++ (>75% = ++++)
15,67 (VVREILHAQTLK; listed as Homo sapiens) [compound 67],+++ (>50 = +++)
16,226 (RVWLGKHYK; listed as Homo sapiens) [compound 226],++++ (>75% = ++++)
17,11 (PLPRPGAVLK; listed as Homo sapiens) [compound 11],++ (>20% = ++)
18,171 (ATIGLSVSK; listed as Homo sapiens) [compound 171],++++ (>75% = ++++)
